Values belong to the molecule of their own block, whether it stands above or below them.
Biological target: T1, nSR100 (Mus musculus, UniProt Q8BKA3)
T1 construct: host or cells: mouse N2A cells
T1 sequence (Q8BKA3 1-608): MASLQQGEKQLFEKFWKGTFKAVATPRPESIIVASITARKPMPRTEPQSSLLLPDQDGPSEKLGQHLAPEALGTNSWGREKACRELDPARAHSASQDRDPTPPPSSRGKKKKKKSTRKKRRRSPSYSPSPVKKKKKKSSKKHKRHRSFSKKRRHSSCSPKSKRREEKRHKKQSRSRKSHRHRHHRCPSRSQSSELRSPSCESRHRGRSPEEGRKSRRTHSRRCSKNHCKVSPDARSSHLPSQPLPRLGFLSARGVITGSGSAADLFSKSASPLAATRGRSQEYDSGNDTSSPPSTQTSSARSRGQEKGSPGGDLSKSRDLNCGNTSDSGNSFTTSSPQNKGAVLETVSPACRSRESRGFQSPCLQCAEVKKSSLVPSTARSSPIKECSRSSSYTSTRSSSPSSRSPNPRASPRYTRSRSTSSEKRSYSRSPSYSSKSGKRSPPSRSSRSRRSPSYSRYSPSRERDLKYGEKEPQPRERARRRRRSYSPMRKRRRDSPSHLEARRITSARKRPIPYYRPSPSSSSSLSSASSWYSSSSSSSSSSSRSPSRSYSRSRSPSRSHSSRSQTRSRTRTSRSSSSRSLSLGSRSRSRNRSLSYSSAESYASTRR
Assay: AP-MS nSR100 interaction partners from mouse N2A cells (Table 5)
Assay type: binding
Conditions: for AvgP (average of the SAINT scores) / MaxP (maximal SAINT score): bait Srrm4; for FoldChange between the prey Avg spectra of the bait and control purifications: bait Srrm4, 0.1 added to prevent division by 0; for AvgSpec (average number of spectra per replicate): bait Srrm4, 2 replicates; for Spectra (number of spectra for the prey in the purification of the bait): AP-MS; for SpecSum: bait Srrm4, sum of spectra over 2 replicates

[1] = bait Srrm4, biological replicate 1 (first number of the cell)
[2] = bait Srrm4, biological replicate 2 (second number of the cell)

Excerpt: By applying affinity purification coupled to mass-spectrometry (AP-MS), several interaction nSR100 partner proteins were detected that provide insight into mechanisms of post-translational regulation of nSR100 levels.

AvgP (average of the SAINT scores): 1 | MaxP (maximal SAINT score): 1 | FoldChange between the prey Avg spectra of the bait and control purifications: 225 | AvgSpec (average number of spectra per replicate): 22.5 | Spectra (number of spectra for the prey in the purification of the bait) [1]: 17 | Spectra (number of spectra for the prey in the purification of the bait) [2]: 28 | SpecSum: 45
B1: Sap18 (protein, UniProt O55128 2-153, looked up)
Histone deacetylase complex …: AVESRVTQEEIKKEPEKPIDREKTCPLLLRVFTTNNGRHHRMDEFSRGNVPSSELQIYTWMDATLKELTSLVKEVYPEARKKGTHFNFAIVFMDLKRPGYRVKEIGSTMSGRKGTDDSMTLQSQKFQIGDYLDIAITPPNRAPPSSGRMRPY

AvgP (average of the SAINT scores): 1 | MaxP (maximal SAINT score): 1 | FoldChange between the prey Avg spectra of the bait and control purifications: 5.13 | AvgSpec (average number of spectra per replicate): 79.5 | Spectra (number of spectra for the prey in the purification of the bait) [1]: 83 | Spectra (number of spectra for the prey in the purification of the bait) [2]: 76 | SpecSum: 159
B2: Ap2b1 (protein, UniProt Q9DBG3 2-937, looked up)
AP-2 complex subunit beta: TDSKYFTTNKKGEIFELKAELNNEKKEKRKEAVKKVIAAMTVGKDVSSLFPDVVNCMQTDNLELKKLVYLYLMNYAKSQPDMAIMAVNSFVKDCEDPNPLIRALAVRTMGCIRVDKITEYLCEPLRKCLKDEDPYVRKTAAVCVAKLHDINAQMVEDQGFLDSLRDLIADSNPMVVANAVAALSEISESHPNSNLLDLNPQNINKLLTALNECTEWGQIFILDCLSNYNPKDDREAQSICERVTPRLSHANSAVVLSAVKVLMKFLELLPKDSDYYNMLLKKLAPPLVTLLSGEPEVQYVALRNINLIVQKRPEILKQEIKVFFVKYNDPIYVKLEKLDIMIRLASQANIAQVLAELKEYATEVDVDFVRKAVRAIGRCAIKVEQSAERCVSTLLDLIQTKVNYVVQEAIVVIRDIFRKYPNKYESIIATLCENLDSLDEPDARAAMIWIVGEYAERIDNADELLESFLEGFHDESTQVQLTLLTAIVKLFLKKPSETQELVQQVLSLATQDSDNPDLRDRGYIYWRLLSTDPVTAKEVVLSEKPLISEETDLIEPTLLDELICHIGSLASVYHKPPNAFVEGSHGIHRKHLPIHHGSTDAGDSPVGTTTTTNLEQPQVIPSQGDLLGDLLNLDLGPPVNVPQVSSMQMGAVDLLGGGLDSLVGQSFIPSSVPATFAPSPTPAVVSSGLNDLFELSTGIGMAPGGYVAPKAVWLPAVKAKGLEISGTFTHRQGHIYMEMNFTNKALQHMTDFAIQFNKNSFGVIPSTPLAIHTPLMPNQSIDVSLPLNTLGPVMKMEPLNNLQVAVKNNIDVFYFSCLIPLNVLFVEDGKMERQVFLATWKDIPNENELQFQIKECHLNADTVSSKLQNNNVYTIAKRNVEGQDMLYQSLKLTNGIWILAELRIQPGNPNYTLSLKCRAPEVSQYIYQVYDSILKN

AvgP (average of the SAINT scores): 1 | MaxP (maximal SAINT score): 1 | FoldChange between the prey Avg spectra of the bait and control purifications: 3.48 | AvgSpec (average number of spectra per replicate): 97.5 | Spectra (number of spectra for the prey in the purification of the bait) [1]: 90 | Spectra (number of spectra for the prey in the purification of the bait) [2]: 105 | SpecSum: 195
B3: Sf3b3 (protein, UniProt Q921M3 1-1217, looked up)
Splicing factor 3B subunit 3: MFLYNLTLQRATGISFAIHGNFSGTKQQEIVVSRGKILELLRPDPNTGKVHTLLTVEVFGVIRSLMAFRLTGGTKDYIVVGSDSGRIVILEYQPSKNMFEKIHQETFGKSGCRRIVPGQFLAVDPKGRAVMISAIEKQKLVYILNRDAAARLTISSPLEAHKANTLVYHVVGVDVGFENPMFACLEMDYEEADNDPTGEAAANTQQTLTFYELDLGLNHVVRKYSEPLEEHGNFLITVPGGSDGPSGVLICSENYITYKNFGDQPDIRCPIPRRRNDLDDPERGMIFVCSATHKTKSMFFFLAQTEQGDIFKITLETDEDMVTEIRLKYFDTVPVAAAMCVLKTGFLFVASEFGNHYLYQIAHLGDDDEEPEFSSAMPLEEGDTFFFQPRPLKNLVLVDELDSLSPILFCQIADLANEDTPQLYVACGRGPRSSLRVLRHGLEVSEMAVSELPGNPNAVWTVRRHIEDEFDAYIIVSFVNATLVLSIGETVEEVTDSGFLGTTPTLSCSLLGDDALVQVYPDGIRHIRADKRVNEWKTPGKKTIVKCAVNQRQVVIALTGGELVYFEMDPSGQLNEYTERKEMSADVVCMSLANVPPGEQRSRFLAVGLVDNTVRIISLDPSDCLQPLSMQALPAQPESLCIVEMGGTEKQDELGERGSIGFLYLNIGLQNGVLLRTVLDPVTGDLSDTRTRYLGSRPVKLFRVRMQGQEAVLAMSSRSWLSYSYQSRFHLTPLSYETLEFASGFASEQCPEGIVAISTNTLRILALEKLGAVFNQVAFPLQYTPRKFVIHPESNNLIIIETDHNAYTEATKAQRKQQMAEEMVEAAGEDERELAAEMAAAFLNENLPESIFGAPKAGNGQWASVIRVMNPIQGNTLDLVQLEQNEAAFSVAVCRFSNTGEDWYVLVGVAKDLILSPRSVAGGFVYTYKLVNNGEKLEFLHKTPVEEVPAAIAPFQGRVLIGVGKLLRVYDLGKKKLLRKCENKHIANYISGIQTIGHRVIVSDVQESFIWVRYKRNENQLIIFADDTYPRWVTTASLLDYDTVAGADKFGNICVVRLPPNTNDEVDEDPTGNKALWDRGLLNGASQKAEVIMNYHVGETVLSLQKTTLIPGGSESLVYTTLSGGIGILVPFTSHEDHDFFQHVEMHLRSEHPPLCGRDHLSFRSYYFPVKNVIDGDLCEQFNSMEPNKQKNVSEELDRTPPEVSKKLEDIRTRYAF

AvgP (average of the SAINT scores): 1 | MaxP (maximal SAINT score): 1 | FoldChange between the prey Avg spectra of the bait and control purifications: 6.78 | AvgSpec (average number of spectra per replicate): 30.5 | Spectra (number of spectra for the prey in the purification of the bait) [1]: 25 | Spectra (number of spectra for the prey in the purification of the bait) [2]: 36 | SpecSum: 61
B4: Srrm1 (protein, UniProt Q52KI8 1-946, looked up)
Serine/arginine repetitive …: MDAGFFRGTSAEQDNRFSNKQKKLLKQLKFAECLEKKVDMSKVNLEVIKPWITKRVTEILGFEDDVVIEFIFNQLEVKNPDSKMMQINLTGFLNGKNAREFMGELWPLLLSAQENIAGIPSAFLELKKEEIKQRQIEQEKLASLKKQDEDKDKRDKEEKESSREKRERSRSPRRRKSRSPSPRRRSSPVRRERKRSHSRSPRHRTKSRSPSPAPEKKEKSPELPEPSVRMKDSSVQEATSTSDILKAPKPEPVPEPKEPSPEKNSKKEKEKTRPRSRSRSKSRSRTRSRSPSHTRPRRRHRSRSRSYSPRRRPSPRRRPSPRRRTPPRRMPPPPRHRRSRSPGRRRRRSSASLSGSSSSSSSSRSRSPPKKPPKRTSSPPRKTRRLSPSASPPRRRHRPSSPATPPPKTRHSPTPQQSNRTRKSRVSVSPGRTSGKVTKHKGTEKRESPSPAPKPRKVELSESEEDKGSKMAAADSVQQRRQYRRQNQQSSSDSGSSSTSEDERPKRSHVKNGEVGRRRRHSPSRSASPSPRKRQKETSPRMQMGKRWQSPVTKSSRRRRSPSPPPARRRRSPSPAPPPPPPPPPPRRRRSPTPPPRRRTPSPPPRRRSPSPRRYSPPIQRRYSPSPPPKRRTASPPPPPKRRASPSPPPKRRVSHSPPPKQRSPTVTKRRSPSLSSKHRKGSSPGRSTREARSPQPNKRHSPSPRPRAPQTSSPPPVRRGASASPQGRQSPSPSTRPIRRVSRTPEPKKIKKTAMATQRNIRRVSKSPKADSLSRAASPSPQSVRRVSSSRSVSGSPEPAAKKPPAPPSPVQSQSPSTNWSPAVPAKKAKSPTPSLSPARNSDQEGGGKKKKKKKDKKHKKDKKHKKHKKHKKEKAVTIATPATAAPAAVSAATTTSAQEEPAAAPEPRKETESEAEDDNLDDLERHLREKALRSMRKAQVSPQS

AvgP (average of the SAINT scores): 1 | MaxP (maximal SAINT score): 1 | FoldChange between the prey Avg spectra of the bait and control purifications: 70 | AvgSpec (average number of spectra per replicate): 7 | Spectra (number of spectra for the prey in the purification of the bait) [1]: 5 | Spectra (number of spectra for the prey in the purification of the bait) [2]: 9 | SpecSum: 14
B5: Snip1 (protein, UniProt Q8BIZ6 1-383, looked up)
Smad nuclear-interacting …: MKAGKSERERSGRRRHRSGDALTTVVVKQERLSPEPVAHRRPDAPAASLSPPAAEPGHSGHRGSRARSPAKKKSKSSGRRSKSPRTKRSQSPHYPMVKVKQEREDHPRRGREDRQHREPSEQEHRRARNSERDRHRGHSRQGRSSDERPVSGQDRDRDSQNLQAQEEERDFHNARRREHRQQNESAGSEAQEVIPRPAGNRSKEVPVKEKPSFELSGALLEDTNTFRGVVIKYSEPPEARIPKKRWRLYPFKNDEVLPVMYIHRQSAYLLGRHRRIADIPIDHPSCSKQHAVFQYRLVEYTRADGTVGRRVKPYIIDLGSGNGTFLNNKRIEPQRYYELKEKDVLKFGFSSREYVLLHESSDTSELDRKEDEDDEEEEMVSDS

AvgP (average of the SAINT scores): 1 | MaxP (maximal SAINT score): 1 | FoldChange between the prey Avg spectra of the bait and control purifications: 40 | AvgSpec (average number of spectra per replicate): 4 | Spectra (number of spectra for the prey in the purification of the bait) [1]: 4|4 | Spectra (number of spectra for the prey in the purification of the bait) [2]: 4|4 | SpecSum: 8
B6: Ftsjd2 (protein, UniProt Q9DBC3 1-837, looked up)
Cap-specific mRNA …: MKRRTDPECTAPLKKQKRIGELARHLSSTSDDEPLSSVNHAAKASATSLSGSDSETEGKQPCSDDFKDAFKADSLVEGTSSRYSMYNSVSQRLMAKMGFREGEGLGKYSQGRKDIVETSNQKGRRGLGLTLQGFDQELNVDWRDEPEPNACEQVSWFPECTTEIPDSREMSDWMVVGKRKMVIEDETEFCGEELLHSMLKCKSVFDILDGEEMRRARTRANPYEMIRGVFFLNRAAMKMANMDFVFDRMFTNPLDSSGKPLLKESDIDLLYFADVCAGPGGFSEYVLWRKKWHAKGFGMTLKGPNDFKLEDFYSASSELFEPYYGEGGVDGDGDITRPENINAFRNFVLDNTDRKGVHFVMADGGFSVEGQENLQEILSKQLLLCQFLMALSVVRTGGHFVCKTFDLFTPFSVGLIYLLYCCFERVCLFKPITSRPANSERYVVCKGLKVGIDDVREYLFSVNIKLNQLRNTESDVNLVVPLMVIKGDHEFNDYMIRSNESYCSLQIKALAKIHAFVQDTTLSEPRQAEIRKECLQLWKIPDQARVAPSSSDPKFKFFELIKDTDINIFSYKPTLLTAKTLEKIRPVLEYRCMVSGSEQKFLLGLGKSQIYTWDGRQSDRWVKLDLKTELPRDTLLCVEIVHELKGEGKAQRKISAIHILDVLVLNGSDVREQHFNQRIQLAEKFVKAVSKPSRPDMNPIRVKEVYRLEEMEKIFVRLEMKLIKGSGGTPKLSYTGRDDRHFVPTGVYIVRTVNEPWTMGFSKSNNRKFFYNKKTQKSVYALPTESIAPFHTCYYSRLFWEWGDGFHMRDSQKPQDPDKLSKEDVLSFIQSHNPLGP
